Here are results for one substance from US5981483A, “Compositions comprising modulators of cytokines of the TGF-β superfamily” (Mount Sinai Hospital Corporation, priority 1997, dated 1999).

Assay [1] relates to rat bone marrow stromal cells. Put plainly: Dexamethasone-treated rat bone marrow stromal cell cultures (proliferation, mineralization, TGF-β levels). It counts as cell-based. The method, then:
The methods used in the studies described in this example and illustrated in FIGS. 16 and 17 are as follows. Femoral bones were removed under aseptic conditions from adult male Wistar rats (120 g), cleaned of adherent soft tissues, and washed extensively in antibiotics. The distal ends were removed and the marrow contents were flushed out with 10 ml of culture medium. The cells were dispersed by repeated passage through a 20 gauge needle and incubated in alpha-MEM supplemented with 15% fetal bovine serum, ascorbic acid (50 μg/ml), antibiotics (penicillin G 100 μg/ml, gentamicin 50 μg/ml, fungizone 0.3 μg/ml) and 10 mM β-glycerophosphate. […] Following 6 days of culture at 37° C. in a humidified atmosphere containing 5% CO2 in air, the cells were re-plated at a density of 1×10^2 cell/mm^2 in 96 multi-well plates (Falcon 3047), and grown for another 12-14 days. At the end of culture, the cells were fixed and stained for calcium with alizarin red-s for quantification of bone nodule area (reported as mineralized area (mm^2)/well). To assess mineralized tissue formation in the cultures morphometric measurements were carried out with the aid of a Bioquant IV system (Bioquant, Nashville, Tenn., U.S.A.) using a Leitz Orthoplan microscope. TGF-β in culture supernatants taken 4 days prior to scoring mineralization were measured with and without heat activation (80° C. for 10 min) using the Mink cells as the indicator cell line as described in FIG. 12.

The next assay has as its target T1, TGF-β1 (Homo sapiens, UniProt P01137).
T1 construct: The mature processed cytokines produced from the members of the gene family show almost 100% amino acid identity between species; purchased Collaborative Research (Bedford, Mass.)
Put plainly: BIAcore surface plasmon resonance, binding to immobilized TGF-β1. The following applies: ligand TGF-β1. Here is the method:
(§1) In this system, a purified protein serving as the ligand is covalently coupled to a carboxymethylated dextran surface, and binding molecules (i.e. the analyte) are passed in a fluid phase across the surface. Binding of the analyte to ligand causes a change in reflected light which is directly proportional to mass bound, and is measured in arbitrary response units (R.U.). Analyte-ligand binding is observed as both increasing response with time during the injection of analyte, and the difference in the position of the baseline before and after injection.
(§2) Schuster, R. V. Swanson, L. A. Alex, R. B. Bourret, M. I. Simon, Nature 365, 343 (1993). 1000 R.U. equals approximately 1 ng/mm^2. The running buffer was 20 mM Hepes (pH 7.2), 150 mM NaCl and the flow rate for all sensorgrams was 3 μl/min.
(§3) Regeneration of the surface to remove bound analyte was done by injection of 10 μl of 20 mM NaOH. To cyclize TRH1 peptides, the material was reduced with 5 mM DTT then brought to a final concentration of 60 μM in 25 mM ammonium acetate (pH 8.5). After stirring in the dark for 30 min at 20° C. with 30 mM potassium ferricyanide, the peptide was mixed with AG3-X4A resin (BioRad), filtered, lyophilization and desalted on a 50×2.5 cm column of Biogel P2 (Pharmacia) developed in water, and further purified by reverse phase HPLC.
Injection volumes were 36 μl for FIG. 2, 4 and 5 and 45 μl for FIG. 3. […] Protein concentrations in each experiment were (FIGS. 2 and 3), 2, 5, 10, 20, 30, 40 μM; (FIG. 4), 0.21, 0.31, 0.41, 0.62, 0.82, 1.24 μM; (FIG. 5), 0.22, 0.29, 0.44, 0.59, 0.88 μM. R.U. for the immobilized cytokine in each experiment was 2850 R.U. for FIGS. 2 and 3; 7450 R.U. for FIG. 4, and 5300 R.U., for FIG. 5 respectively.
(§4) Data was analyzed using the BIA-evaluation software (Pharmacia Biosensor). The association rate constant, kass, was calculated by first plotting the change in response with time versus response (i.e. dR/dT vs R). When the slope of the line from this graph is plotted versus analyte concentration (i.e d(dR/dT)/dR vs C), kass is obtained from the slope of the line. The dissociation rate constant, kdiss, is obtained during the decrease in response with time after analyte injection is discontinued. Specifically, kdiss was obtained from the slope of the line in a plot of ln(Rt1 /Rtn) vs time. The affinity constants were calculated from KD =kdiss /kass. Variance for kass is standard error of the linear regression plot, and for kdiss values are the mean ± range of 3 or more independent injections.
For orientation: Surface plasmon resonance follows binding to a sensor surface in real time, without labels.

For the next assay, the target named is T2, BMP-6 (Homo sapiens, UniProt P22004).
T2 sequence (P22004 375-513): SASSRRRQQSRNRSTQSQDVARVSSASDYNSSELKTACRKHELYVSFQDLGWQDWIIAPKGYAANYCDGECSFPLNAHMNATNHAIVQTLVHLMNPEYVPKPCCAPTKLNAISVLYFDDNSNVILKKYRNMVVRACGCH
Put plainly: BIAcore surface plasmon resonance, binding to immobilized BMP-6. The following applies: Table 1; ligand BMP-6. Here is the method: as §1, §2
Regeneration of the surface to remove bound analyte was done by injection of 10 μl of 20 mM NaOH. To cyclize TRH1 peptides, the material was reduced with 5 mM DTT then brought to a final concentration of 60 μM in 25 mM ammonium acetate (pH 8.5). […]
Data was analyzed using the BIA-evaluation software (Pharmacia Biosensor). The association rate constant, kass, was calculated by first plotting the change in response with time versus response (i.e. dR/dT vs R). […] The affinity constants were calculated from KD =kdiss /kass. […]

A further assay has as its target T3, TGF-β2 (Homo sapiens, UniProt P61812).
T3 construct: The mature processed cytokines produced from the members of the gene family show almost 100% amino acid identity between species
T3 sequence (P61812 303-414 limits assumed): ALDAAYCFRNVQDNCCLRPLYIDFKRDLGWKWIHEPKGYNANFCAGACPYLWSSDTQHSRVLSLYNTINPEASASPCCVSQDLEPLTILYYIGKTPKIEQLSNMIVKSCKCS
Put plainly: BIAcore surface plasmon resonance, binding to immobilized TGF-β2. The following applies: ligand TGF-β2. The method, then:
as §1, §2, §3
as §4, with “Variance for kass is standard error of the linear regression plot, and for kdiss values are the mean ± range of 3 or more independent injections.” left out

Where [2] appears, read: Table 2 (calculations repeated).

T1 sequence (P01137 279-390 limits assumed): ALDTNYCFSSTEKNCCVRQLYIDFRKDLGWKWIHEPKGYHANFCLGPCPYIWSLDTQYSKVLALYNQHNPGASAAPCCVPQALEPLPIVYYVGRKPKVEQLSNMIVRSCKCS

As usually defined, the Kd is the concentration at which binding is half-saturated. Regarding “Fetuin: Bovine fetal fetuin, glycoprotein obtained by ammonium sulfate fractionation of FCS and gel filtration (Sigma)”, in assay [1] (data not shown), the “BMP-2 induced osteogenesis in the cultures” value was “could be blocked”. The “deposition of calcium-containing matrix” value in assay [1] (dexamethasone-treated bone marrow cultures, latter two weeks, FIGS. 16 and 18) is on record as “inhibited deposition of calcium-containing matrix”. Also, the “cell number during the first week of culture (proliferative phase)” value in assay [1] (dexamethasone-treated, FIG. 15) is on record as “stimulated an increase in cell number”. For the same substance, the kass with TGF-β1 (Table 1) is 670 ± 400 M⁻¹ s⁻¹; with TGF-β1 (Table 1, listed as fetuin), 670 M⁻¹ s⁻¹; with TGF-β1 (setting [2]) it was 870 ± 270 M⁻¹ s⁻¹; in the assay with BMP-6, 2900 ± 500 M⁻¹ s⁻¹; in the assay with TGF-β2 (Table 1) it was 550 ± 120 M⁻¹ s⁻¹; in the assay with TGF-β2 (setting [2]), 550 ± 120 M⁻¹ s⁻¹. The kdiss in the assay with TGF-β1 (Table 1, listed as fetuin) is 0.16 s⁻¹; in the assay with TGF-β1 (setting [2]) it was 0.0019 s⁻¹. For the same substance, in the assay with TGF-β1 (Table 2 (calculations repeated), KD = kdiss/kass, listed as b-Fetuin), the Kd is 2200 nM.
